We go through 2 molecules from patent publication US20040210040A1 (PDL BIOPHARMA, published 2004).

For test [1], the target named is T1, recombinant soluble human amphiregulin (human, UniProt P15514 101-198, limits assumed).
T1 construct: also called AR; human AR
T1 sequence: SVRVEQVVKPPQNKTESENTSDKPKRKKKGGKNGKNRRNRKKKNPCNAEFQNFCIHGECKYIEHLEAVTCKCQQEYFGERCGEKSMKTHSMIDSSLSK
As to the kind of experiment: competition ELISA on coated recombinant soluble human amphiregulin, competitor against biotinylated PAR34, Exp. D. The procedure: (§1) The affinity of HuPAR34 to human amphiregulin was analyzed by competition ELISA. MaxiSorp ELISA plates (Nalge Nunc International) were coated overnight at 4° C. with 100 μl/well of 0.5 μg/ml recombinant soluble human amphiregulin in 0.2 M sodium carbonate-bicarbonate buffer, pH 9.4, washed with Wash Buffer (PBS containing 0.1% Tween 20), and blocked for 15 min at room temperature with 200 μl/well of SuperBlock Blocking Buffer in TBS (Pierce Chemical Company). After washing with Wash Buffer, a mixture of biotinylated PAR34 (0.125 μg/ml final concentration) and competitor antibody (PAR34 or HuPAR34 starting at 75 μg/ml final concentration and serially diluted 3-fold) in 100 μl/well of ELISA buffer was added in triplicate. As a control, 100 μl/well of 75 μg/ml of humanized anti-CD33 IgG1/κ monoclonal antibody HuM195 (Co, M. S. et al., J. Immunol., 148: 1149-1154 (1992)) in ELISA buffer was used. As a no-competitor control, 100 μl/well of ELISA Buffer was used. After incubating the plates for 1 hr and washing with Wash Buffer, bound antibodies were detected using 100 μl/well of 1 μg/ml HRP-conjugated streptavidin (Pierce Chemical Company) in ELISA buffer. After incubating for 0.5 hr at room temperature and washing with Wash Buffer, color development was performed by adding 100 μl/well of ABTS substrate (KPL, Inc.). […] Absorbance was read at 415 nm. […]

Test [2] concerns the target T1, recombinant soluble human amphiregulin. In words: SPR (BIAcore 3000), antibody immobilized, AR as analyte. As for the experimental part: (§2) Affinities between human amphiregulin (AR) and PAR34 or HuPAR34 were analyzed using BIAcore 3000 (BLAcore, Sweden).
(§3) The BIAcore analysis may be conducted according to the following protocol. PAR34 or HuPAR34 is immobilized on the Pioneer F1 chip using standard amine coupling kit (BIAcore). Surface plasmon resonance is measured at a flow rate of 50 μl/min at 24° C. Injection of AR (association phase) occurs over 180 seconds. Dissociation is subsequently monitored over 3 hours. Kinetics of binding (ka and kd) are calculated from data acquired at five different concentrations of analyte (320 nM, 160 nM, 80 nM, 40 nM, 20 nM), using the BIAevaluation program. Double-referencing is applied to eliminate responses from reference surface and buffer only control. The binding affinity, KD, is obtained by simultaneously fitting the association and dissociation phases of the sensorgram from the analyte concentration series.
(Surface plasmon resonance follows binding to a sensor surface in real time, without labels.)

Test [3] shares this target. As to the kind of experiment: competition ELISA on coated recombinant soluble human amphiregulin, competitor against biotinylated PAR34, Exp. C. As for the experimental part: as §1
Background: ELISA stands for enzyme-linked immunosorbent assay.

For test [4] the target is unchanged. As to the kind of experiment: competition ELISA against biotinylated PAR34, average of Exp. A-D. As for the experimental part:
as §1

Test [5] shares this target. As to the kind of experiment: SPR (BIAcore 3000). The procedure: as §2, §3
Test [6] shares this target. As to the kind of experiment: competition ELISA on coated recombinant soluble human amphiregulin, competitor against biotinylated PAR34, Exp. B. The procedure:
as §1

Test [7] shares this target. In words: competition ELISA against biotinylated PAR34, Exp. A. The procedure:
as §1

For test [8] the target is unchanged. As to the kind of experiment: cell-based or functional assay.
Test [9] has the same target. As to the kind of experiment: competition ELISA on coated recombinant soluble human amphiregulin, competitor against biotinylated PAR34, Exp. A. The procedure:
as §1

Test [10] shares this target. As to the kind of experiment: competition ELISA on plate-coated recombinant soluble human amphiregulin; competes with biotinylated PAR34. The procedure:
as §1

The target is the same in test [11]. In words: competition ELISA on coated recombinant soluble human amphiregulin, competitor against biotinylated PAR34, average of Exp. A-D. The procedure:
as §1

Test [12] has the same target. In words: competition ELISA against biotinylated PAR34, Exp. D. As for the experimental part: as §1
For test [13] the target is unchanged. In words: competition ELISA against biotinylated PAR34, Exp. B. The procedure:
as §1

Test [14] shares this target. In words: competition ELISA against biotinylated PAR34, Exp. C. The procedure:
as §1

Some results are limits rather than exact numbers.

B1: HuPAR34 (humanized PAR34, IgG1/kappa) (antibody, V domains shown)
VH: EVQLVQSGAEVKKPGASVKISCKVSGYAFTNYNMYWVRQAPGKGLEWIGYIDPYYGDPGYSQKFKGKATLTVDKSTSTAYMELSSLRSEDTAVYYCARRGNFPYYFDYWGQGTLVTVSS
VL: DIQMTQSPSSLSASVGDRVTITCKASQDINSYLSWFQQKPGKAPKTLIYRANRLVDGVPSRFSGSGSGQDYTLTISSLQPEDFATYYCLQYDEFPYTFGGGTKVEIK
B1: the 50% inhibitory concentration (IC50) came out at 2.76 µg/mL in test [1]; 1.76 µg/mL in test [3]; 1.11 µg/mL in test [6]; 1.95 µg/mL in test [9]; 1.9 µg/mL in test [11]. Besides, the equilibrium dissociation constant (Kd) in test [2] was 0.53 nM. Besides, the koff in test [2] came out at 0.00823 s⁻¹. In [2], the kon was found to be 1.26e+07 M⁻¹ s⁻¹. The “fold difference of IC50, HuPAR34 against PAR34” value came out at 1.8 fold in [4]; 2.4 fold in test [7]; 2 fold in [12]; 1.4 fold in test [13]; 1.4 fold in [14]. For the same molecule, the “fold difference of affinity, HuPAR34 against PAR34” value in test [5] is ≤ 2 fold. In addition, the “IC50 of inhibition of AR-mediated proliferation in 3T3 cells” value in test [8] was 0.055 µg/mL. Moreover, in test [10], the “IC50 (read off the curve)” value is ~2 µg/mL.

B2: PAR34 (murine anti-amphiregulin monoclonal antibody) (antibody, mouse IgG2b, V domains shown)
VH: EIQLQQSGPELVKPGASVKVSCKASGYAFTNYNMYWVKQSHGKSLEWIGYIDPYYGDPGYSQKFKGKATLTVDKSSSTAYMHLNSLTSEDSAVYYCARRGNFPYYFDYWGQGTTLTVSS
VL: DIKMTQSPSSMYASLGERVTITCKASQDINSYLSWFQQKPGKSPKTLIYRANRLVDGVPSRFSGSGSGQDYSLTISSLEYEDMGIYYCLQYDEFPYTFGGGTKLEIK
On to B2, for which the IC50 in [1] was 1.39 µg/mL; in test [3], 1.3 µg/mL; in test [6], 0.78 µg/mL; in test [9], 0.82 µg/mL; in test [11] it was 1.07 µg/mL. Moreover, the Kd in [2] amounted to 0.41 nM. Besides, the off-rate (koff) in test [2] worked out at 0.024 s⁻¹. Besides, the on-rate constant (kon) in test [2] was 4.8e+07 M⁻¹ s⁻¹. In test [8], the “IC50 of inhibition of AR-mediated proliferation in 3T3 cells” value amounted to 0.025 µg/mL. The “IC50 (read off the curve)” value in test [10] is ~1 µg/mL.

The IC50 is the concentration that inhibits the measured activity by half. As usually defined, the Kd is the concentration at which binding is half-saturated. As usually defined, the koff is the first-order rate constant of dissociation. The term kon denotes the rate constant with which the complex forms.
